Laboratory results as given in paper PMC10786891, “Massively parallel profiling of RNA-targeting CRISPR-Cas13d”.
Substitutions are numbered along the chain they refer to. Names and notes keep the numbering of the source.

T1: EsCas13d, nuclease-dead (Eubacterium siraeum, UniProt B0MS50, R295A;H300A;R849A;H854A)
T1 sequence: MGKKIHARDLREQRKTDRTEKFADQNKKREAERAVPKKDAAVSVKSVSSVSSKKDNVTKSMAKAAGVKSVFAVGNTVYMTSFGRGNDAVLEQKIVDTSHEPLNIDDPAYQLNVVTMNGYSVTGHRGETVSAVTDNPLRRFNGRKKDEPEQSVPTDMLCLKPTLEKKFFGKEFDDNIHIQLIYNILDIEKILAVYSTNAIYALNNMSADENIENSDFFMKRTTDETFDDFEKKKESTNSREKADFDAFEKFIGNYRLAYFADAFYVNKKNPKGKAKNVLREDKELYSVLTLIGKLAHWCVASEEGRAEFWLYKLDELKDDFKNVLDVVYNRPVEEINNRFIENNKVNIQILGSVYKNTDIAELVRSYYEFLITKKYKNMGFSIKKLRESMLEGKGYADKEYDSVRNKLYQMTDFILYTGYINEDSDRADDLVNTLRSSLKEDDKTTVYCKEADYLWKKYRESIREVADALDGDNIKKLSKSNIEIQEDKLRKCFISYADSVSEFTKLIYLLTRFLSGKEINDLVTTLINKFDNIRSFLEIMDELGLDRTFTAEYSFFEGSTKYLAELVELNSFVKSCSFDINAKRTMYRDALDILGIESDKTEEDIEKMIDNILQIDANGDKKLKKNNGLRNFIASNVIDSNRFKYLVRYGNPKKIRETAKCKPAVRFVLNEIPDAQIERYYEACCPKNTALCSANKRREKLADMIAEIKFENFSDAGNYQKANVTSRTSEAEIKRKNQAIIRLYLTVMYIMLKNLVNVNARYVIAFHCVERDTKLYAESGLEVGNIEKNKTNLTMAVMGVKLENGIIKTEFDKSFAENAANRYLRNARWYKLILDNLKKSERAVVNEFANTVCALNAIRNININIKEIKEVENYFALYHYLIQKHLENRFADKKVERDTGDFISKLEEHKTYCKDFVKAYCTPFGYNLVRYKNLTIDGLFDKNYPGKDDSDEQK

B1: target 3 insU 3' of 4,insU 3' of 3 (mixed)
RNA 1: CACCCGUGCAAAAUUGCAGGGGUCUAAAACGACCUGAAUAUUUCAGAUCAAA
RNA 2: GGGAAUGGAUCCACAUCUACGAAUUCGUUUUUGAUCUGAAAUAUUCAGUGUUCUGCAGAUCGGAAGAGCACACGU
B2: target 3 insG 3' of 9,insG 3' of 6 (mixed)
RNA 1: B1 RNA 1
RNA 2: B1 RNA 2 with U44G, C46U, A47C, U49A, U51G
B3: target 3 G4C,U22A (mixed)
RNA 1: B1 RNA 1
RNA 2: GGGAAUGGAUCCACAUCUACGAAUUCGUUAUUGAUCUGAAAUAUUCACGUCUGCAGAUCGGAAGAGCACACGU
B4: target 3 G4A,A11C (mixed)
RNA 1: B1 RNA 1
RNA 2: B3 RNA 2 with A30U, A41C, C48A
B5: target 3 G19C,U20G (mixed)
RNA 1: B1 RNA 1
RNA 2: B3 RNA 2 with A30U, U32G, G33C, C48G
B6: target 3 insG 3' of 9,insG 3' of 8 (mixed)
RNA 1: B1 RNA 1
RNA 2: B1 RNA 2 with U44G, C46G, A47U, G48C, U49A, U51G
B7: target 3 U2A,A5U (mixed)
RNA 1: B1 RNA 1
RNA 2: B3 RNA 2 with A30U, A47U, C48G, U50A
B8: target 3 del6,del22 (mixed)
RNA 1: B1 RNA 1
RNA 2: GGGAAUGGAUCCACAUCUACGAAUUCGUUUUGAUCUGAAAUAUUAGGUCUGCAGAUCGGAAGAGCACACGU
B9: target 3 insA 3' of 7,insA 3' of 4 (mixed)
RNA 1: B1 RNA 1
RNA 2: B1 RNA 2 with C46A, A47C, G48A, U49G, G50A, U51G
B10: target 3 insG 3' of 6,insG 3' of 1 (mixed)
RNA 1: B1 RNA 1
RNA 2: B1 RNA 2 with A47G, G48A, U49G, U52C, C53G
B11: target 3 complement block 2-6 (mixed)
RNA 1: B1 RNA 1
RNA 2: B3 RNA 2 with A30U, C46G, A47U, G49C, U50A
B12: target 3 insG 3' of 8,insA 3' of 2 (mixed)
RNA 1: B1 RNA 1
RNA 2: B1 RNA 2 with U45G, C46U, A47C, G48A, U49G, U52A
B13: target 3 insG 3' of 8,insU 3' of 4 (mixed)
RNA 1: B1 RNA 1
RNA 2: B1 RNA 2 with U45G, C46U, A47C, G48A, U49G, G50U, U51G
B14: target 3 A18G,U22G (mixed)
RNA 1: B1 RNA 1
RNA 2: B3 RNA 2 with A30G, A34G, C48G
B15: target 3 complement block 1-6 (mixed)
RNA 1: B1 RNA 1
RNA 2: B3 RNA 2 with A30U, C46G, A47U, G49C, U50A, C51G
B16: target 3 insC 3' of 7,insG 3' of 5 (mixed)
RNA 1: B1 RNA 1
RNA 2: B1 RNA 2 with A47C, G48A, U49G, U51G
B17: target 3 insC 3' of 13,insU 3' of 5 (mixed)
RNA 1: B1 RNA 1
RNA 2: B1 RNA 2 with A40C, U42A, A43U, U44A, C46U, A47C, G48A, U51G
B18: target 3 insA 3' of 21,insA 3' of 4 (mixed)
RNA 1: B1 RNA 1
RNA 2: GGGAAUGGAUCCACAUCUACGAAUUCGUUUUAUGAUCUGAAAUAUUCAGAGUCUGCAGAUCGGAAGAGCACACGU
B19: target 3 insG 3' of 6,insU 3' of 1 (mixed)
RNA 1: B1 RNA 1
RNA 2: B1 RNA 2 with A47G, G48A, U49G, U52C, C53U
B20: target 3 U2C,A5C (mixed)
RNA 1: B1 RNA 1
RNA 2: B3 RNA 2 with A30U, A47C, C48G, U50C
B21: target 3 insG 3' of 16,insU 3' of 1 (mixed)
RNA 1: B1 RNA 1
RNA 2: GGGAAUGGAUCCACAUCUACGAAUUCGUUUUUGAUCGUGAAAUAUUCAGGUCUUGCAGAUCGGAAGAGCACACGU
B22: target 3 insU 3' of 6 (mixed)
RNA 1: B1 RNA 1
RNA 2: GGGAAUGGAUCCACAUCUACGAAUUCGUUUUUGAUCUGAAAUAUUCUAGGUCUGCAGAUCGGAAGAGCACACGU
B23: target 3 insG 3' of 6,insU 3' of 5 (mixed)
RNA 1: B1 RNA 1
RNA 2: B1 RNA 2 with A47G, G48A, U51G
B24: target 3 A11G,U22A (mixed)
RNA 1: B1 RNA 1
RNA 2: B3 RNA 2 with A41G, C48G
B25: target 3 insC 3' of 11,insA 3' of 10 (mixed)
RNA 1: B1 RNA 1
RNA 2: B1 RNA 2 with U42C, A43U, U44A, U45A, C46U, A47U, G48C, U49A, U51G
B26: target 3 insA 3' of 8,insA 3' of 8 (mixed)
RNA 1: B1 RNA 1
RNA 2: B1 RNA 2 with U45A, C46A, A47U, G48C, U49A, U51G
B27: target 3 insA 3' of 4,insU 3' of 3 (mixed)
RNA 1: B1 RNA 1
RNA 2: B1 RNA 2 with U49A
B28: target 3 insU 3' of 6,insA 3' of 2 (mixed)
RNA 1: B1 RNA 1
RNA 2: B1 RNA 2 with A47U, G48A, U49G, U52A
B29: target 3 A11C,G14A (mixed)
RNA 1: B1 RNA 1
RNA 2: B3 RNA 2 with A30U, G38A, A41C, C48G
B30: target 1 insA 3' of 15,insC 3' of 5 (mixed)
RNA 1: CACCCGUGCAAAAAUGCAGGGGUCUAAAACUGAGCGGAUAACCUCUCUAUGG
RNA 2: GGGAAUGGAUCCACAUCUACGAAUUCGUACCAUAGAGAAGGUUAUCCGCCUCACCGAGAUCGGAAGAGCACACGU
B31: target 1 C2U,G15U (mixed)
RNA 1: B30 RNA 1
RNA 2: GGGAAUGGAUCCACAUCUACGAAUUCGUACCAUAGAUAGGUUAUCCGCUUACCGAGAUCGGAAGAGCACACGU
B32: target 1 insC 3' of 14,insU 3' of 14 (mixed)
RNA 1: B30 RNA 1
RNA 2: B30 RNA 2 with A39C, G40U, U42G, A44U, U45A, C46U, G48C, C49G

The binders below were run against T1, EsCas13d, nuclease-dead (assay: crRNA (strand 1, pre-loaded); Mg2+; 40 mM Tris-HCl pH 7.5, 150 mM NaCl, 6 mM MgCl2, 1 mM DTT, 0.1% Tween-20, 0.2 mg/ml BSA; 25 C; 10 min per concentration, then washed). Conditions: tags: His6-TwinStrep-SUMO cleaved; N-terminal SNAP kept (SNAP-Surface 488); label: 3' end held by stalled T7 RNA polymerase.

| Binder | Kd [nM] |
| --- | --- |
| B1 | 15.2 ± 1.8 |
| B2 | 71 ± 10 |
| B3 | 10.7 ± 1 |
| B4 | 48.5 ± 11.5 |
| B5 | ~49 |
| B6 | 57 ± 6 |
| B7 | 7.35 ± 1.15 |
| B8 | 19.4 ± 1.9 |
| B9 | 66 ± 12 |
| B10 | 25 ± 10.5 |
| B11 | 58.5 ± 9 |
| B12 | 67.5 ± 17 |
| B13 | 21.2 ± 4.45 |
| B14 | 64 ± 10 |
| B15 | 28.5 ± 4.5 |
| B16 | 58.5 ± 9.5 |

| Binder | Kd [nM] |
| --- | --- |
| B17 | 100 ± 40 |
| B18 | ~81.5 |
| B19 | 56.5 ± 15 |
| B20 | 105 ± 18.5 |
| B21 | 74 ± 24 |
| B22 | 17.3 ± 1.35 |
| B23 | 7.59 ± 0.605 |
| B24 | 67 ± 15 |
| B25 | 46.5 ± 16.5 |
| B26 | 63 ± 8.5 |
| B27 | 72 ± 18.5 |
| B28 | 47 ± 14 |
| B29 | 51 ± 10 |
| B30 | 16.7 ± 1.4 |
| B31 | 29 ± 4 |
| B32 | 50 ± 12 |
